The assay has as its target Flag-ACRP-hCD40L.

“GPI-anchored CD40 ectodomain (from UniProt P25942 21-193)” came in with an amount of transfected CD40-GPI plasmid sufficient to inhibit 50% of CD40-induced NF-κB response (luciferase reporter, 293T cells; CD40L here from 1 ng of co-transfected plasmid) of 1.4 ng.

Source of the values: publication PMC5386471.
